The source of these data is patent US20220024975A1 (ARROWHEAD PHARMACEUTICALS, published 2022).

Several values for one entry are separate records, joined by “and”; a condition that tells them apart may be missing. Equal entries are not always repeated. Non-standard residues stand in square brackets, D forms with d. No end group written: not given here. *: point of attachment. MeO‑PEG8 = N-terminal cap, methoxy-PEG with 8 ethylene glycol units; guanidinyl = N-terminal guanidinyl cap, N=C(N)*; Pentanoyl(5-guanidino) = NC(N)=NCCCCC(=O)*; Cha = N[C@@H](CC1CCCCC1)C(=O)O; Cit = NC(=O)NCCC[C@H](N)C(=O)O; Agp = N=C(N)NC[C@H](N)C(=O)O; Abu = CC[C@H](N)C(=O)O; Aib = CC(C)(N)C(=O)O; Sar = CNCC(=O)O

First the molecules themselves.
B1: Dap(guanidino)-GDLATLRQL (peptide)
peptide: [Agp]GDLATLRQL
modifications: not fully specified; printed as Dap(guanidino)-GDLATLRQL
notes: Tested as ligand-(PEG)8-K-HyNic conjugated to Cy5-labelled 1170-100B polymer
B2: RGDLATLRQLEEEK-(HyNic) (peptide)
peptide: RGDLATLRQLEEEK(HyNic)
modifications: also: conjugated via HyNic to Cy5-labelled 1170-100B polymer, places HyNic at (1)..(1) as C-terminal
notes: Conjugated to Cy5-labelled 1170-100B polymer; printed with its own K-(HyNic)
B3: Me-RGDLATLRQL (peptide)
peptide: Me-RGDLATLRQL
modifications: not fully specified; printed as Me-RGDLATLRQL
notes: as for B1
B4: RGDLATL (peptide)
peptide: RGDLATL
modifications: not fully specified
notes: Tested as ligand-(PEG)8-K-HyNic conjugated to Cy5-labelled 1170-100B polymer; also called natural peptide
B5: Ac-RGDLAILRQL (peptide)
peptide: Ac-RGDLAILRQL
modifications: not fully specified; printed as Ac-RGDLAILRQL
notes: as for B1
B6: Ac-RGDLALLRQL (peptide)
peptide: Ac-RGDLALLRQL
modifications: not fully specified; printed as Ac-RGDLALLRQL
notes: as for B1
B7: Ac-RGDLAVLRQL (peptide)
peptide: Ac-RGDLAVLRQL
modifications: not fully specified; printed as Ac-RGDLAVLRQL
notes: as for B1
B8: des-amino-… (peptide)
peptide: [Pentanoyl(5-guanidino)]GDLATLRQL
modifications: not fully specified (C-terminus); printed as des-amino-RGDLATLRQL; also: HyNic conjugated to Cy5-labelled 1170-100B polymer
B9: Guanidinyl-RGDLATLRQL (peptide)
peptide: guanidinyl-RGDLATLRQL
modifications: not fully specified; printed as Guanidinyl-RGDLATLRQL
notes: as for B1
B10: Ac-RGDLATLRQL (peptide)
peptide: Ac-RGDLATLRQL
modifications: not fully specified; printed as Ac-RGDLATLRQL
notes: as for B1
B11: MeO-PEG8-RGDLATLRQL (peptide)
peptide: {MeO‑PEG8}-RGDLATLRQL
modifications: not fully specified; printed as MeO-PEG8-RGDLATLRQL
notes: as for B1
B12: RGDLATLRQ (peptide)
peptide: RGDLATLRQ
modifications: not fully specified
notes: as for B1
B13: RGDLAT (peptide)
peptide: RGDLAT
modifications: not fully specified
notes: as for B1

T1 sequence (P06756 31-1048, chain 1 of 2): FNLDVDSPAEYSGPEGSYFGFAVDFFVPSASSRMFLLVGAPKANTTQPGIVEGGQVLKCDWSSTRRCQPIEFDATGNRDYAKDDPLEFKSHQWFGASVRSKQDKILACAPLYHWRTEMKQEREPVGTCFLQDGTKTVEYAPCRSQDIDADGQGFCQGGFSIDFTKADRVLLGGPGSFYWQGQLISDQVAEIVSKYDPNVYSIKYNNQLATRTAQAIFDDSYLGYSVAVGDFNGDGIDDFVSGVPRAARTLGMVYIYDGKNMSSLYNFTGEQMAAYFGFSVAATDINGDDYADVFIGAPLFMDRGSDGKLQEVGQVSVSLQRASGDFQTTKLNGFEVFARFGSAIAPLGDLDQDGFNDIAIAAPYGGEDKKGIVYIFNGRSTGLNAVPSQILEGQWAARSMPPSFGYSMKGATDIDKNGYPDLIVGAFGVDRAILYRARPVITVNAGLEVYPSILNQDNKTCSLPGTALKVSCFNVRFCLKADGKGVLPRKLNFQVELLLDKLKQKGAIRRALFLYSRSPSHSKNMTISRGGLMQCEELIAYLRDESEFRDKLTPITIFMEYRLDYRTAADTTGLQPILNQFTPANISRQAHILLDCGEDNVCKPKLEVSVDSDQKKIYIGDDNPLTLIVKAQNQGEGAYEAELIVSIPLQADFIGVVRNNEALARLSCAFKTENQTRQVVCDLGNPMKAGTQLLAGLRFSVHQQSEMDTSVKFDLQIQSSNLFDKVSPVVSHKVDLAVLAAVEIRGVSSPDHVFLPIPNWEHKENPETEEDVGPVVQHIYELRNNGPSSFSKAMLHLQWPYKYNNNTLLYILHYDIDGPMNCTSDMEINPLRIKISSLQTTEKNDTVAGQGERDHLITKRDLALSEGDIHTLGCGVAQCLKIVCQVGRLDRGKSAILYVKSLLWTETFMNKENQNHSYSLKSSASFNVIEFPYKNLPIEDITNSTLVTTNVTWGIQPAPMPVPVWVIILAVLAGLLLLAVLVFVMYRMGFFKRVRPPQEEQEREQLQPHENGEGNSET
T1 sequence (P18564 22-788, chain 2 of 2): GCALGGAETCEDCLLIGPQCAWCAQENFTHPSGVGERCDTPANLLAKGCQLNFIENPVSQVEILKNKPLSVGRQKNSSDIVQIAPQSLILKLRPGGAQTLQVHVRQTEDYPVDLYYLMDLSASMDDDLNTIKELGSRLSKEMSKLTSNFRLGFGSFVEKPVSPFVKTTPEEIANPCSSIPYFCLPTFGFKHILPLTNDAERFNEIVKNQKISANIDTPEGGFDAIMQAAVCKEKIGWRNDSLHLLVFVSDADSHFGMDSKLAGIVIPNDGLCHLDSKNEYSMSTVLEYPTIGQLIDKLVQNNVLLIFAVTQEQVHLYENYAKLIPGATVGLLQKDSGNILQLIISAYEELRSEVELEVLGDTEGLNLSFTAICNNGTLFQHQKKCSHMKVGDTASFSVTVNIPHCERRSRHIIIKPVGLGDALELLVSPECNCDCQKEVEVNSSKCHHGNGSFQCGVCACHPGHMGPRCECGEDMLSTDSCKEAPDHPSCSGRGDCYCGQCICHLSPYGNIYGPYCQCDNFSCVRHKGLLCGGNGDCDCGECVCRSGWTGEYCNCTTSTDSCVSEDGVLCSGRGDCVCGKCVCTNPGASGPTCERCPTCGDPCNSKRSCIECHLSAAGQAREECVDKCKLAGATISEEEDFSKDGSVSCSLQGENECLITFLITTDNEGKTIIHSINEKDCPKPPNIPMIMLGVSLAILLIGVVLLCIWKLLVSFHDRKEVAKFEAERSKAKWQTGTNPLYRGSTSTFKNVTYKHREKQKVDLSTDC

One assay has as its target T1, αvβ6 integrin (human, UniProt P06756 31-1048; P18564 22-788).
T1 construct: whole, on cells; target is the endogenous integrin on αvβ6 positive-control cell lines; also called Integrin alpha-v beta-6
Description: flow cytometry, Cy5-polymer conjugate 5 µg/ml, CAPAN-2 cells.
For Ac-RGαMeDLAAbuLCitAib (peptide), the MFI (specific MFI ratio, sample/no-ligand) came out at 1.
For the molecule Ac-RGDLA[Abu]L[Cit][Aib]L, the MFI (specific MFI ratio, sample/no-ligand) was found to be 7.7.
For the molecule Ac-RGDαMeLAAbuLCitAib (peptide), the MFI (specific MFI ratio, sample/no-ligand) is 0.9.
Ac-RGDLA[Abu]L[Aib]: the MFI (specific MFI ratio, sample/no-ligand) turned out to be 8.9.
With Ac-RGDLA[Abu]L, the MFI (specific MFI ratio, sample/no-ligand) was 7.9.

The next assay deals with T1, αvβ6 integrin. Description: flow cytometry, Cy5-polymer conjugate 5 µg/ml, H2009 cells. An excerpt: B. αvβ6 ligand binding (flow cytometric analyses). To assess for specificity of binding of the αvβ6 ligands to the αvβ6 integrin, each αvβ6 ligand or negative control peptide was conjugated to a Cy5-labeled polymer (as described above) and evaluated for binding to cells. […] H2009 (human lung epithelial adenocarcinoma) and CAPAN-2 (human pancreas adenocarcinoma) cells served as the αvβ6 positive-control cell lines. Cells were detached from culturing flasks with Accutase, washed in PBS, and seeded into 5 ml polystyrene round-bottom tubes at 200,000 cells in 200 μl complete media (culturing media with supplements and fetal calf serum). αvβ6 ligand-polymer conjugates or no-ligand-polymer conjugates were added at 5 μg/ml (polymer-Cy5 concentration) to cells, mixed and incubated at 37° C. for 3 h. Incubation at 37° C. facilitated ligand/receptor interaction which may result in static binding to the extracellular cell surface and/or internalized ligand/receptor complexes. The mixture was re-suspended at 1 h intervals. Following a 3 h incubation, cells were washed 2× with 4 ml chilled buffer (PBS-2% FCS) and re-suspended in 200 μl buffer containing 10 μM SYTOX blue stain for live/dead cell gating. Samples were analyzed on a BD Biosciences Canto II cytometer equipped with a violet (405 nm), blue (488 nm) and red (633 nm) lasers.
Viable cells were initially gated as the SYTOX blue negative population on the C detector with the violet laser. These viable cells were then assessed for conjugate binding/uptake with the red laser as the Mean Fluorescence Intensity (MFI) of the Cy5 fluorophore. Data analyses were performed with FlowJo v10.1 software. A specific MFI Ratio (sMFIr) for each αvβ6 ligand was determined by the formula: […]
A general note: Flow cytometry measures light scatter and fluorescence of single cells or particles in a stream.
Regarding Ac-RGDLAGL[Cit][Aib], the MFI (specific MFI ratio, sample/no-ligand) stood at 3.8.
With Ac-RGDL[Cha]TLRQL, the MFI (specific MFI ratio, sample/no-ligand) was found to be 5.1.
As to Ac-RGDLA[Abu]LF[Aib], the MFI (specific MFI ratio, sample/no-ligand) was found to be 3.6.
In the case of Ac-RGDLA[Abu]LE[Aib], the MFI (specific MFI ratio, sample/no-ligand) amounted to 1.9.
For CH3(CH2)4CO-RGDLAAbuLCitAib (peptide), the MFI (specific MFI ratio, sample/no-ligand) was determined as 3.9.
Regarding Ac-RGDLAQL[Cit][Aib], the MFI (specific MFI ratio, sample/no-ligand) came to 3.6.
On to Ac-RGDLE[Abu]L[Cit][Aib], for which the MFI (specific MFI ratio, sample/no-ligand) is 2.6.
Consider Ac-RGDLAFL[Cit][Aib], for which the MFI (specific MFI ratio, sample/no-ligand) was 2.
Same read-out and setting: with Ac-R[Sar]DLA[Abu]L[Cit][Aib] the figure was 2.6; with Ac-RGDLA[Abu]LQ[Aib], 4.4; with Ac-RGDLA[Abu]L[Cit]P, 4.
Take Ac-RGDLA[Abu]LK[Aib]: the MFI (specific MFI ratio, sample/no-ligand) was found to be 5.4.
Turning to Ac-RGDLAAbuNMeLCitAib (peptide), the MFI (specific MFI ratio, sample/no-ligand) is 1.3.
Still for that read-out and setting: with CH3(CH2)3-RGDLAAbuLCitAib (peptide) the figure was 4.7.
In the case of Ac-RGDL[Aib]TLRQL, the MFI (specific MFI ratio, sample/no-ligand) was 4.
On the same count and under the same terms, with CH3CH2-RGDLAAbuLCitAib (peptide) the figure was 4.4; with Ac-RGDLK[Abu]L[Cit][Aib], 3.6; with RGDLA[Abu]L[Cit][Aib]L, 4.6.
As for Ac-RGαMeDLAAbuLCitAib (peptide), the MFI (specific MFI ratio, sample/no-ligand) was 0.9 and 1.
On the same count and under the same terms, with Ac-RGDLG[Abu]L[Cit][Aib] the figure was 3.7.
For CH3(CH2)3CO-RGDLAAbuLCitAib (peptide), the MFI (specific MFI ratio, sample/no-ligand) came to 4.1.
The same measure, in the same setting: with CH3(CH2)2-RGDLAAbuLCitAib (peptide) the figure was 3.9; with Ac-RGDLA[Abu]L[Cit]G, 4.8.
Turning to Ac-RGDLA[Abu]LG[Aib], the MFI (specific MFI ratio, sample/no-ligand) was determined as 4.
With Ac-RGDLA[Abu]L[Cit]F, the MFI (specific MFI ratio, sample/no-ligand) was found to be 3.7.
As for Ac-RGDL[Cha][Abu]L[Cit][Aib], the MFI (specific MFI ratio, sample/no-ligand) was found to be 1.6.
As to Ac-RGDLA[Abu]L[Cit]K, the MFI (specific MFI ratio, sample/no-ligand) came out at 5.2.
On the same count and under the same terms, as for Ac-RGDLAPL[Cit][Aib], the figure is 2.8; as for Ac-RGDLP[Abu]L[Cit][Aib], 1; as for CH3(CH2)4-RGDLAAbuLCitAib (peptide), 4.1.
On to Ac-RGDLAKL[Cit][Aib], for which the MFI (specific MFI ratio, sample/no-ligand) turned out to be 3.6.
Regarding Ac-RGDLA[Abu]L[Cit][Aib]L, the MFI (specific MFI ratio, sample/no-ligand) was 3.2 and 4.55 and 4.6.
For Ac-RGDLA[Abu]L[Cit], the MFI (specific MFI ratio, sample/no-ligand) amounted to 3.3.
Turning to “CH3O(CH2CH2O)3CH2CH2CO-RGDLAAbuLCitAib (peptide)”, the MFI (specific MFI ratio, sample/no-ligand) is 3.7.
Turning to Ac-RGDLA[Abu]LRQL, the MFI (specific MFI ratio, sample/no-ligand) was found to be 6.47.
On the same count and under the same terms, as for Ac-[Cit]GDLATL[Cit]QL, the figure is 0.99; as for Ac-RGDLQ[Abu]L[Cit][Aib], 3.7; as for Ac-RGDLA[Abu]L[Cit]E, 4.
Regarding Ac-RGDLβ3-hATLRQL (peptide), the MFI (specific MFI ratio, sample/no-ligand) was 4.5.
On the same count and under the same terms, as for Ac-RGDαMeLAAbuLCitAib (peptide), the figure is 0.8 and 1; as for CH3(CH2)2CO-RGDLAAbuLCitAib (peptide), 4.3; as for Ac-RGDLA[Abu]L[Cit]Q, 4.4.
Still for that read-out and setting: with Ac-RGDNMeLAAbuLCitAib (peptide) the figure was 1; with Ac-RGDLF[Abu]L[Cit][Aib], 2.7; with “CH3O(CH2CH2O)5CH2CH2CO-RGDLAAbuLCitAib (peptide)”, 1.6.
Same read-out and setting: as for Ac-RGDLA[Abu]L[Aib], the figure is 3.2.
With “CH3O(CH2CH2O)2CH2CH2CO-RGDLAAbuLCitAib (peptide)”, the MFI (specific MFI ratio, sample/no-ligand) was 3.6.
Ac-RGDLA[Abu]L[Cit][Aib]: the MFI (specific MFI ratio, sample/no-ligand) is 4.7 and 3.8.
On to Ac-RGDLA[Abu]L, for which the MFI (specific MFI ratio, sample/no-ligand) is 2.6.
The same measure, in the same setting: as for “CH3O(CH2CH2O)1CH2CH2CO-RGDLAAbuLCitAib (peptide)”, the figure is 3.8; as for Ac-RGDLATL[Cit]QL, 3.94; as for Ac-RGDLAEL[Cit][Aib], 2.4.
Consider CH3(CH2)1CO-RGDLAAbuLCitAib (peptide), for which the MFI (specific MFI ratio, sample/no-ligand) stood at 4.2.
The same measure, in the same setting: with Ac-RGDLβ3-hAAbuLCitAib (peptide) the figure was 2.34.
As for Ac-RGDLA[Abu]LP[Aib], the MFI (specific MFI ratio, sample/no-ligand) was determined as 1.6.
Still for that read-out and setting: with B1 the figure was 3.4 ratio.
As to B2, the “MFI (specific MFI ratio, sample/no-ligand)” value was 6.5 ratio.
As to B3, the “MFI (specific MFI ratio, sample/no-ligand)” value was determined as 4.8 ratio.
Regarding B4, the “MFI (specific MFI ratio, sample/no-ligand)” value is 2.9 ratio.
Turning to B5, the “MFI (specific MFI ratio, sample/no-ligand)” value was determined as 6.22 ratio.
For the molecule B6, the “MFI (specific MFI ratio, sample/no-ligand)” value amounted to 6.06 ratio.
Turning to B7, the “MFI (specific MFI ratio, sample/no-ligand)” value came out at 6.23 ratio.
On to B8, for which the MFI (specific MFI ratio, sample/no-ligand) was determined as 1.1.
B9: the “MFI (specific MFI ratio, sample/no-ligand)” value was 4.3 ratio.
Take B10: the “MFI (specific MFI ratio, sample/no-ligand)” value was 4.7 ratio.
For B11, the “MFI (specific MFI ratio, sample/no-ligand)” value amounted to 2.5 ratio.
As to B12, the “MFI (specific MFI ratio, sample/no-ligand)” value amounted to 4.7 ratio.
The same measure, in the same setting: with B13 the figure was 1.3 ratio.
